# Assay results from the supplement of paper PMC7125110.
# ± gives the standard error. Fewer inactive variants are shown than the library holds.
# B1: glmS ribozyme (parent)
# chain: AUAAAAGCGCCAGAACUACAGAAAUGUAGUUGACGAGGAGGAGGUUUAUCGAAUUUUCGGCGGAUGCCUCCAAA
# Tests used:
# Details in all cases: with glucosamine-6-phosphate
# glucosamine-6-phosphate [1] = variants of: B1; test: self-cleavage kobs at 160 uM GlcN6P; higher = faster cleavage; RNA array
# Outline: (§1)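 Tracking of barcoded ribozyme variants used a hybridised Cy3 probe at 37 °C, after in situ transcription by E. coli RNA polymerase on sequenced MiSeq chips. The flowed solution held 40 μM to 10 mM glucosamine-6-phosphate in HEPES/KCl/Mg(OAc)2 buffer, and imaging ran over ~14 h. kobs was taken from exponential decay fits of normalised per-tile medians, and kcat and KM from weighted Michaelis–Menten fits.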
# glucosamine-6-phosphate [2] = variants of: B1; test: self-cleavage kobs at 640 uM GlcN6P; higher = faster cleavage; RNA array
# Outline: as §1
# glucosamine-6-phosphate [3] = variants of: B1; test: self-cleavage kobs at 2500 uM GlcN6P; higher = faster cleavage; RNA array
# Outline: as §1
# glucosamine-6-phosphate [4] = variants of: B1; test: self-cleavage kobs at 10000 uM GlcN6P; higher = faster cleavage; RNA array
# Outline: as §1
Variant,self-cleavage kobs at 160 uM GlcN6P (glucosamine-6-phosphate [1]) [s⁻¹],self-cleavage kobs at 640 uM GlcN6P (glucosamine-6-phosphate [2]) [s⁻¹],self-cleavage kobs at 2500 uM GlcN6P (glucosamine-6-phosphate [3]) [s⁻¹],self-cleavage kobs at 10000 uM GlcN6P (glucosamine-6-phosphate [4]) [s⁻¹]
AUAAAAGCGCCAGAACUACAGAAAUGUAGUUGCCAAGGAGGAGGUUUAUCGAAUUUUCGGCGGAUGCCUCCAAA [A33C G35A],< 1e-05,< 1e-05,< 1e-05,< 1e-05
AUAAAAGCGCCGGAACUACAGAAAUGUAGUUGACGAGGAGGAGGUGUAUCGAAUUUUCUGCGGAUGCCUCCAAA [A12G U46G G59U],< 1e-05,< 1e-05,< 1e-05,–
AUAAAAGCGCCAGAACUACAGAAAUGUAGUGGACGAGGAGGAGGGUUAACGAAUUAUCGGCGGAUGCCUCCAAA [U31G U45G U49A U56A],< 1e-05,–,–,< 1e-05
AUAAAAUCGCCAGAACUACAGAAAUGUAGUUUCCGAGGAGGAGGUUAAUCGAAUUUUCAGCGGAUGCCUCCAAA [G7U G32U A33C U47A G59A],< 1e-05,–,–,–
AUAAAAGCGCCAGAACUACAGAAAUGUAGUUGACGAGGAGGAGGUUUACCGAAUUUUCGGCAGAUGCCUCCAAA [U49C G62A],< 1e-05,< 1e-05,–,< 1e-05
AUAAAAGCGCCGGAACUACAGAAAUGUAGUUGACGCGGAGGAGGUUUAUCGAAUUUUCGGCGGAAGCCUCCAAA [A12G A36C U65A],< 1e-05,< 1e-05,< 1e-05,< 1e-05
AUAAAAGCGCCUGAGUUACAGAAAUGUAGUGGACGAGGAGGAGGUUUAUCGAAUUUUCGGCGGAUGCCUCUAAA [A12U A15G C16U U31G C71U],0.000195 ± 6.7e-05,0.000442 ± 0.00015,0.000331 ± 0.0001,–
AUAAAAGAGCCAGAACUACAGAAAUGUAGAUGACGAUGAGGAGGUUUAUCGAAUUUUAGGCGGAUGCCUCCAAA [C8A U30A G37U C58A],< 1e-05,–,–,–
AUAAAAGCGCCAGGACUACAGAAAUGUAGUUGGCGAGGAGGAGGUUUAUCGAAUUUUCGUCGGAUGCCUCCAAA [A14G A33G G60U],< 1e-05,< 1e-05,< 1e-05,–
AUAAAAGCGCCAGCACUACAGAAAUGUAGUUGACGGGGAGGAGGUGUAUCGAAUUUUCGGCGGAAGCCUCCAAA [A14C A36G U46G U65A],< 1e-05,< 1e-05,–,–
AUAAAAGCGCCAGAACUACAGAAAUGUAUGUGACGAGGUGGAGGUUUAUCGAAUUUUCGGCGGAUGCCUCCAAA [G29U U30G A39U],8.86e-05 ± 2.1e-05,–,0.0013 ± 0.00029,–
AUAAAAGCGCCAGAACUACAGAAAUGUAGUUGACGAGGAGGAGGUUUAUCGAAUUAUCGCCGGAUGCCUCCAAA [U56A G60C],< 1e-05,< 1e-05,< 1e-05,–
AUAAAAGCGCCAGAACUACAGAAAUGUAGGUGACGAGGAGGAGGUUUAUCGAAUUUUCGGCGGAUGCCUCGAAA [U30G C71G],6.06e-05 ± 2.9e-05,9.91e-05 ± 2.4e-05,0.000179 ± 4.3e-05,0.000543 ± 0.00012
AUAAAAGCGCCAGAACUACAGAAAUGUAGUUGACGAGCAGGAGGUUUAUCGAAUUUUCGGCUGAUGCCUCCAAA [G38C G62U],< 1e-05,–,< 1e-05,< 1e-05
AUAAAAGCGCCAGAACUACAGAAAUGUAGUUGACGAAAAGGAGGUUUAUCGAAUUUUCGGCGGAUGCCUCCAAA [G37A G38A],< 1e-05,< 1e-05,< 1e-05,< 1e-05
AUAAAAGAGCCAGAACUACAGAAAUGUAGUUGACGAGGAGGAGGUUUAUCGAAUUUACGGCGGAUGCCUCCAAA [C8A U57A],< 1e-05,< 1e-05,< 1e-05,< 1e-05
AUAAAAGCGCCAGAACUACAGAAAUGUAGUUGGCGAGGAGGUGGUUUAUCGAAUUUUCUGCGGAUGCCUCCAAA [A33G A42U G59U],< 1e-05,–,–,–
AUAAAAGCGCCAGAACUACAGAAAUGUAGUUGACGAGGAGAAGGUUUAUGGAAUUUUCGGCGGAUGCCUCCAAA [G41A C50G],< 1e-05,< 1e-05,< 1e-05,< 1e-05
AUAAAAGCGCCAGAACUACAGAAAUGUAGUUGACGGGGAGGAGGUUUAUCGAAUUUUCGGCGGUUGCCUCUAAA [A36G A64U C71U],< 1e-05,< 1e-05,< 1e-05,–
AUAAAAGCGUCAGAACUACAGAAAUGUAGUUGACGAGGAGGAGGUUUAUCGAAUUUUCGGCGGAGGCCUCCAAA [C10U U65G],< 1e-05,–,–,–
AUAAAAGCGCCAGAACUACAGAAAUGUAGUUGGCGAGGAGGAGGUUUAUCGACUUUUCAGCGGAUGCCUCCAAA [A33G A53C G59A],< 1e-05,–,< 1e-05,< 1e-05
AUAAAAGCGCCAGAACUACAGAAAUGUAGUUGACGAGGAGGAAAUUUAUCGAAUUUUCGGCGGAUGCCUCCAAA [G43A G44A],< 1e-05,< 1e-05,< 1e-05,< 1e-05
AUAAAAGCGCCAGAACUACAGAAAUGUAGGUGACGAGGAGGAGGUUUAUGGAAUUUUGGUGGGAUGCCUCCAAA [U30G C50G C58G G60U C61G],0.000251 ± 7.4e-05,0.00014 ± 2.9e-05,0.00022 ± 6.9e-05,–
AUAAAAGCACCAGAACUACAGAAAUGUAGUUGACGAGGAGGAGGUUUAACGAAUUUUCGGCGGAUGCCUCCAAA [G9A U49A],< 1e-05,< 1e-05,< 1e-05,–
AUAAAGGCGCCAGAACUACAGAAAUGUAGUUGACGAGGAGGAGGUUCAUCGAAUUUUCGGCGGAUGGCUCCAAA [A6G U47C C67G],< 1e-05,< 1e-05,–,–
AUAAAAGCGCCAGAACUACAGAAAUGUAGUUGACGAGCAGGCGGUUUAUCGAAUUUUCGGCGGAUGCCUCCAAA [G38C A42C],< 1e-05,< 1e-05,< 1e-05,< 1e-05
